The source of these data is patent publication US20240270846A1 (published 2024).

This assay addresses T1, CD3 epsilon homodimer protein (UniProt P07766 23-126).
T1 construct: Immobilized on Sensor chip CM4 by amine coupling; construct not described; also called CD3 (CD3 epsilon)
In words: SPR Biacore T200, CD3 epsilon homodimer on CM4 chip, antibody as analyte.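 Also: Amine-coupled CD3 epsilon homodimer, run at 25 °C in HBS-EP+ buffer, ratio is bound amount of each single-residue H chain variant over that of the parent antibody.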

T1 sequence (P07766 23-126): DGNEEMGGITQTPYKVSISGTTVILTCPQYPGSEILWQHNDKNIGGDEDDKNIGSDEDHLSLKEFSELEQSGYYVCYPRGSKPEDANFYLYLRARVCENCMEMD

B1: CE115HA000 T57N one-arm antibody (antibody, human IgG1, kappa, L234A L235A, N297A, name in Kabat numbering)
heavy: QVQLVESGGGVVQPGRSLRLSCAASGFTFSNAWMHWVRQAPGKGLEWVAQIKAKSNNYANYYAESVKGRFTISRDDSKNSLYLQMNSLKTEDTAVYYCRYVHYGAYYGVDAWGQGTTVTVSSASTKGPSVFPLAPSSKSTSGGTAALGCLVKDYFPEPVTVSWNSGALTSGVHTFPAVLQSSGLYSLSSVVTVPSSSLGTQTYICNVNHKPSNTKVDKKVEPKSCDKTHTCPPCPAPEAAGGPSVFLFPPKPKDTLMISRTPEVTCVVVDVSHEDPEVKFNWYVDGVEVHNAKTKPREEQYASTYRVVSVLTVLHQDWLNGKEYKCKVSNKALPAPIEKTISKAKGQPREPQVYTLPPSRCELTKNQVSLSCAVKGFYPSDIAVEWESNGQPENNYKTTPPVLDSDGSFFLVSKLTVDKSRWQQGNVFSCSVMHEALHNHYTQKSLSLSPDYKDDDDK
chain: EPKSSDKTHTCPPCPAPELLGGPSVFLFPPKPKDTLMISRTPEVTCVVVDVSHEDPEVKFNWYVDGVEVHNAKTKPREEQYNSTYRVVSVLTVLHQDWLNGKEYKCKVSNKALPAPIEKTISKAKGQPREPQVCTLPPSRDELTKNQVSLWCLVKGFYPSDIAVEWESNGQPENNYKTTPPVLDSDGSFFLYSKLTVDKSRWQQGNVFSCSVMHEALHNRYTQKSLSLSP
light: DIVMTQSPLSLPVTPGEPASISCRSSQSLVHSNRNTYLHWYQQKPGQAPRLLIYKVSNRFSGVPDRFSGSGSGTDFTLKISRVEAEDVGVYYCGQGTQVPYTFGQGTKLEIKRTVAAPSVFIFPPSDEQLKSGTASVVCLLNNFYPREAKVQWKVDNALQSGNSQESVTEQDSKDSTYSLSSTLTLSKADYEKHKVYACEVTHQGLSSPVTKSFNRGEC
notes: one-arm antibody (one Fab)
B1: the “ratio of amounts bound (Y/X vs CE115HA000)” value is 0.97.

B2: CE115HA000 V95A one-arm antibody (antibody, human IgG1, kappa, L234A L235A, N297A, name in Kabat numbering)
heavy: QVQLVESGGGVVQPGRSLRLSCAASGFTFSNAWMHWVRQAPGKGLEWVAQIKAKSNNYATYYAESVKGRFTISRDDSKNSLYLQMNSLKTEDTAVYYCRYAHYGAYYGVDAWGQGTTVTVSSASTKGPSVFPLAPSSKSTSGGTAALGCLVKDYFPEPVTVSWNSGALTSGVHTFPAVLQSSGLYSLSSVVTVPSSSLGTQTYICNVNHKPSNTKVDKKVEPKSCDKTHTCPPCPAPEAAGGPSVFLFPPKPKDTLMISRTPEVTCVVVDVSHEDPEVKFNWYVDGVEVHNAKTKPREEQYASTYRVVSVLTVLHQDWLNGKEYKCKVSNKALPAPIEKTISKAKGQPREPQVYTLPPSRCELTKNQVSLSCAVKGFYPSDIAVEWESNGQPENNYKTTPPVLDSDGSFFLVSKLTVDKSRWQQGNVFSCSVMHEALHNHYTQKSLSLSPDYKDDDDK
chain: EPKSSDKTHTCPPCPAPELLGGPSVFLFPPKPKDTLMISRTPEVTCVVVDVSHEDPEVKFNWYVDGVEVHNAKTKPREEQYNSTYRVVSVLTVLHQDWLNGKEYKCKVSNKALPAPIEKTISKAKGQPREPQVCTLPPSRDELTKNQVSLWCLVKGFYPSDIAVEWESNGQPENNYKTTPPVLDSDGSFFLYSKLTVDKSRWQQGNVFSCSVMHEALHNRYTQKSLSLSP
light: DIVMTQSPLSLPVTPGEPASISCRSSQSLVHSNRNTYLHWYQQKPGQAPRLLIYKVSNRFSGVPDRFSGSGSGTDFTLKISRVEAEDVGVYYCGQGTQVPYTFGQGTKLEIKRTVAAPSVFIFPPSDEQLKSGTASVVCLLNNFYPREAKVQWKVDNALQSGNSQESVTEQDSKDSTYSLSSTLTLSKADYEKHKVYACEVTHQGLSSPVTKSFNRGEC
notes: one-arm antibody (one Fab)
As for B2, the “ratio of amounts bound (Y/X vs CE115HA000)” value stood at 0.11.
